Read-outs that look alike come from different tables or passages of the source.
Columns and labels:
Format in all cases: physicochemical
[1] = Conjugator-antibody conjugate stability in pH 7.4 and 8.0 buffer with and without GSH;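 note: conjugate hydrolysis tracked by LC-MS analysis of reduced samples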
[2] = Conjugator-antibody conjugate stability in formulation buffer (pH 5.5 20 mM histidine buffer); details: pH 5.5, 22 °C
Description: After the conjugation and hydrolysis steps described above (see “DAR8 antibody drug conjugate/conjugator-antibody conjugate preparation”), conjugator-antibody conjugates were incubated in formulation buffer (pH 5.5 20 mM histidine buffer) or glutathione (GSH) buffer (pH 7.4 or 8.0), […] Hydrolysis status was monitored via reduced LCMS. Results are presented in Table 6, Table 7, and FIGS. 2A-23B.

[3] = Conjugator-antibody conjugate maleimide hydrolysis (ring opening) kinetics by reduced LCMS; details: for half-life: buffer; for RO Completed Time (>95%): time for the maleimide ring to open in more than 95% of the conjugators
Description: After the conjugation step, the ADC (or conjugator-antibody conjugate) was subjected to buffer exchange into ring opening buffer (pH 6.5˜9.0, PBS, borate or tris buffer) and the solution was left at 22 or 37° C. for 1˜48 h. The maleimide ring opening process was monitored via reduced LCMS. Once the conjugated maleimide hydrolysis was completed, the resulting ADCs were buffer exchanged into basic tris pH 8.0-8.5 buffer or acidic histidine-acetate pH 5.0-6.5 buffer via dialysis.
LCMS method to monitor and determine maleimide hydrolysis. LC-MS analysis was carried out under the following measurement conditions: • LC-MS system: Vanquish Flex UHPLC and Orbitrap Exploris 240 Mass Spectrometer • Column: MAbPac™ RP, 2.1*50 mm, 4 μm, 1,500 Å, Thermo Scientific™ • Column temperature: 80° C. • Mobile phase A: 0.1% formic acid (FA) aqueous solution • Mobile phase B: Acetonitrile solution containing 0.1% formic acid (FA) • Gradient program 1: 25% B-25% B (0 min-2 min), 25% B-50% B (2 min-18 min), 50% B-90% B (18 min-18.1 min), 90% B-90% B (18.1 min-20 min), 90% B-25% B (20 min-20.1 min), 25% B-25% B (20.1 min-25 min) • Gradient program 2 • Injected sample amount: 2 μg • MS parameters: Intact and denaturing MS data were acquired in HMR mode at setting of R=15k and deconvolved using the ReSpect™ algorithm and Sliding Window integration in Thermo Scientific™ BioPharma Finder™ 4.0 software.
Results for ring opening times measured by the LCMS method described above for monitoring ring hydrolysis are presented in Table 3 as RO T1/2 (h) (i.e., the time, in hours, for 50% of the maleimide rings to open).
Conjugator-antibody conjugate maleimide hydrolysis (ring opening) kinetics are presented in FIGS. 1A-1L, Table 3 (for pH 7.0 reaction conditions, hydrolysis T1/2), and Table 5. The data in Table 5 was generated by the LCMS method described above and includes the time, in hours, for the maleimide ring to open in more than 95% of the conjugators, after antibody conjugation (“RO Completed Time (>95%) (h)”). The results for conjugator-antibody conjugate 3-1 indicate that after 24 hours, about 0% of maleimide rings were open; the results for conjugator-antibody conjugate 3-3 indicate that after 24 hours, about 28% of maleimide rings were open.

[4] = pH 7.0, time for 50% of the maleimide rings to open, read-out: RO T1/2 (converted)

Compound | MS DAR-T = 0 h [2] | MS DAR ([3]; pH 7, time point 1 h) | RO (%) LC ([3]; pH 7, time point 1 h) [%] | MS DAR ([3]; pH 7, time point 3 h) | RO (%) HC ([3]; pH 7, time point 3 h) [%] | RO (%) LC ([3]; pH 7, time point 3 h) [%] | RO (%) Total ([3]; pH 7, time point 3 h) [%] | MS DAR ([3]; pH 7, time point 5 h) | RO (%) HC ([3]; pH 7, time point 5 h) [%] | RO (%) LC ([3]; pH 7, time point 5 h) [%] | RO (%) Total ([3]; pH 7, time point 5 h) [%] | MS DAR ([3]; pH 7, time point 7 h) | RO (%) HC ([3]; pH 7, time point 7 h) [%] | RO (%) LC ([3]; pH 7, time point 7 h) [%] | RO (%) Total ([3]; pH 7, time point 7 h) [%] | MS DAR ([3]; pH 7, time point 24 h) | RO (%) HC ([3]; pH 7, time point 24 h) [%] | RO (%) LC ([3]; pH 7, time point 24 h) [%] | RO (%) Total ([3]; pH 7, time point 24 h) [%] | RO Completed Time (>95%) ([3]; pH 7) [h] | also measured
CC(C)N(CCC(=O)N(C)C)C(=O)OCC(CN)N1C(=O)C=CC1=O (stereo not drawn) [3-9] | 8.00 | 7.94 | 40.06 | 7.94 | 99.84 | 79.93 | 94.86 | 7.96 | 99.07 | 89.36 | 96.64 | 7.96 | 100 | 93.56 | 98.39 | 7.96 | 100 | 99.17 | 99.79 | 5 | MS DAR ([1]; incubation 20 h, pH 7.4, 22 °C): 8.00; MS DAR ([1]; incubation 20 h, pH 7.4, 37 °C): 8.00; MS DAR ([1]; incubation 20 h, pH 8.0, 22 °C): 8.00; MS DAR-T = 168 h ([2]; incubation time printed 240 h): 8.00; Maleimide ring opening ratio (%) at T = 168 h ([2]; incubation time printed 240 h): 98.51%; half-life [3, 4]: 0.8 h; RO (%) HC ([3]; pH 7, time point 1 h): 66.09%; RO (%) Total ([3]; pH 7, time point 1 h): 59.58%
CN(C)C(=O)CCNC(=O)OCCC(CN)N1C(=O)C=CC1=O (stereo not drawn) [3-13] | 7.84 | 8 | 21.50 | 8 | 92.96 | 64.20 | 85.77 | 8 | 100.00 | 74.30 | 93.58 | 8 | 99.68 | 93.68 | 98.18 | 8 | 100.00 | 94.99 | 98.75 | 7 | MS DAR ([1]; incubation 24 h, pH 7.4, 22 °C): 7.90; MS DAR ([1]; incubation 24 h, pH 7.4, 37 °C): 7.90; MS DAR ([1]; incubation 24 h, pH 8.0, 22 °C): 7.90; MS DAR-T = 168 h ([2]; incubation 168 h): 7.88; Maleimide ring opening ratio (%) at T = 168 h ([2]; incubation 168 h): 98.33%; half-life ([3]; pH 7): 1.7 h; RO (%) HC ([3]; pH 7, time point 1 h): 43.63%; RO (%) Total ([3]; pH 7, time point 1 h): 38.10%
CN(C)C(=O)CCOCC(N)CN1C(=O)C=CC1=O (stereo not drawn) [3-7] | 8.00 | 8.52 | 28.33 | 8 | 79.61 | 60.08 | 74.73 | 8 | 88.54 | 77.85 | 85.87 | 8 | 87.98 | 86.34 | 87.57 | 8 | 90.8 | 92.99 | 91.35 | >24 | MS DAR ([1]; incubation 20 h, pH 7.4, 22 °C): 8.00; MS DAR ([1]; incubation 20 h, pH 7.4, 37 °C): 8.00; MS DAR ([1]; incubation 20 h, pH 8.0, 22 °C): 8.00; MS DAR-T = 168 h ([2]; incubation 168 h): 8.00; Maleimide ring opening ratio (%) at T = 168 h ([2]; incubation 168 h): 97.99%; half-life ([3]; pH 7): 1.7 h; RO (%) HC ([3]; pH 7, time point 1 h): 40.83%; RO (%) Total ([3]; pH 7, time point 1 h): 37.71%
CN(C)C(=O)CCNC(=O)NCC(CN)N1C(=O)C=CC1=O (stereo not drawn) [3-12] | 8.02 | 8 | 27.31 | 8 | 89.82 | 74.84 | 86.08 | 8 | 95.33 | 78.30 | 91.07 | 8 | 99.07 | 88.53 | 96.44 | 8 | 99.64 | 95.87 | 98.70 | 7 | MS DAR ([1]; incubation 24 h, pH 7.4, 22 °C): 8.00; MS DAR ([1]; incubation 24 h, pH 7.4, 37 °C): 8.00; MS DAR ([1]; incubation 24 h, pH 8.0, 22 °C): 8.00; MS DAR-T = 168 h ([2]; incubation 168 h): 8.02; Maleimide ring opening ratio (%) at T = 168 h ([2]; incubation 168 h): 97.83%; half-life [3, 4]: 1.6 h; RO (%) HC ([3]; pH 7, time point 1 h): 45.46%; RO (%) Total ([3]; pH 7, time point 1 h): 40.92%
NCC(COC(=O)NCCOCCOCCOCCOCCC(=O)O)N1C(=O)C=CC1=O (stereo not drawn) [3-4] | 8.00 | 7.96 | 23.19 | 7.98 | 88.19 | 75.33 | 84.98 | 7.98 | 90.01 | 87.91 | 89.49 | 7.98 | 99.07 | 95.37 | 98.15 | 7.98 | 99.08 | 99.66 | 99.23 | 7 | MS DAR ([1]; incubation 20 h, pH 7.4, 22 °C): 8.00; MS DAR ([1]; incubation 20 h, pH 7.4, 37 °C): 8.00; MS DAR ([1]; incubation 20 h, pH 8.0, 22 °C): 8.00; MS DAR-T = 168 h ([2]; incubation 168 h): 8.00; Maleimide ring opening ratio (%) at T = 168 h ([2]; incubation 168 h): 98.86%; half-life [3, 4]: 1.6 h; RO (%) HC ([3]; pH 7, time point 1 h): 51.56%; RO (%) Total ([3]; pH 7, time point 1 h): 44.47%
CN(C)C(=O)CCCCC(CN)N1C(=O)C=CC1=O (stereo not drawn) [3-10] | 8.00 | 8 | 21.63 | 8 | 76.09 | 49.46 | 69.43 | 8 | 91.86 | 64.05 | 84.91 | 8 | 98.26 | 83.47 | 94.56 | 8 | 99.52 | 100 | 99.64 | 7 | MS DAR ([1]; incubation 20 h, pH 7.4, 22 °C): 8.00; MS DAR ([1]; incubation 20 h, pH 7.4, 37 °C): 8.00; MS DAR ([1]; incubation 20 h, pH 8.0, 22 °C): 8.00; MS DAR-T = 168 h ([2]; incubation 168 h): 8.00; Maleimide ring opening ratio (%) at T = 168 h ([2]; incubation 168 h): 98.38%; half-life [3, 4]: 2 h; RO (%) HC ([3]; pH 7, time point 1 h): 42.51%; RO (%) Total ([3]; pH 7, time point 1 h): 37.29%
CN(C)C(=O)CN(C)C(=O)OCC(CN)N1C(=O)C=CC1=O (stereo not drawn) [3-8] | 7.76 | 7.74 | 44.94 | 7.88 | 96.11 | 80.15 | 92.12 | 7.78 | 99.49 | 92.96 | 97.85 | 7.8 | 99.47 | 94.42 | 98.21 | 7.8 | 99.55 | 95.48 | 98.53 | 5 | MS DAR ([1]; incubation 20 h, pH 7.4, 22 °C): 7.92; MS DAR ([1]; incubation 20 h, pH 7.4, 37 °C): 7.92; MS DAR ([1]; incubation 20 h, pH 8.0, 22 °C): 7.88; MS DAR-T = 168 h ([2]; incubation 168 h): 7.80; Maleimide ring opening ratio (%) at T = 168 h ([2]; incubation 168 h): 95.50%; half-life [3, 4]: 1.6 h
CN(C)C(=O)CCOCCC(CN)N1C(=O)C=CC1=O (stereo not drawn) [3-14] | 8.00 | 8 | 17.39 | 8 | 67.87 | 32.97 | 59.15 | 8 | 85.71 | 77.46 | 83.65 | 8 | 95.45 | 72.00 | 89.59 | 8 | 99.69 | 95.83 | 98.73 | 24 | MS DAR ([1]; incubation 24 h, pH 7.4, 22 °C): 7.98; MS DAR ([1]; incubation 24 h, pH 7.4, 37 °C): 8.00; MS DAR ([1]; incubation 24 h, pH 8.0, 22 °C): 8.00; MS DAR-T = 168 h ([2]; incubation 168 h): 8.00; Maleimide ring opening ratio (%) at T = 168 h ([2]; incubation 168 h): 97.15%; half-life [3, 4]: 2 h; RO (%) HC ([3]; pH 7, time point 1 h): 46.79%; RO (%) Total ([3]; pH 7, time point 1 h): 39.44%
